To fix the notation:
B1: 58 (protein)
chain: MADLYENPMGLMGFEFIEFASPTPGTLEPIFEIMGFTKVATHRSKNVHLYRQGEINLILNNEPNSIASYFAAEHGPSVCGMAFRVKDSQKAYNRALELGAQPIHIDTGPMELNLPAIKGIGGAPLYLIDRFGEGSSIYDIDFVYLEGVERNPVGAGLKVIDHLTHNVYRGRMVYWANFYEKLFNFREARYFDIKGEYTGLTSKAMSAPDGMIRIPLNEESSKGAGQIEEFLMQFNGEGIQHVAFLTDDLVKTWDALKKIGMRFMTAPADSYYEMLEGRLPDHGEPVDQLQARGILLDGSSVEGDKRLLLQIFSETLMGPVFFEFIQRKGDDGFGPDSFKVLFESIERDQVRRGVLTAD
modifications: mutant HPPD polypeptide
B2: 3 (protein)
chain: B1 chain with S270T
modifications: mutant HPPD polypeptide
B3: 67 (protein)
chain: B1 chain with R213K, T315R, D336H, S344Q, I345M
modifications: mutant HPPD polypeptide
B4: 64 (protein)
chain: B1 chain with D336H, S344Q, I345M
modifications: mutant HPPD polypeptide
B5: 9 (protein)
chain: B1 chain with S270T, I345V
modifications: mutant HPPD polypeptide
B6: 65 (protein)
chain: B1 chain with T315R, D336H, I345M
modifications: mutant HPPD polypeptide
B7: 7 (protein)
chain: B1 chain with A268G, S270N
modifications: mutant HPPD polypeptide
B8: 69 (protein)
chain: B1 chain with T315R, D336H, S344Q, I345M
modifications: mutant HPPD polypeptide
B9: 5 (protein)
chain: B1 chain with A268P, S270T
modifications: mutant HPPD polypeptide
B10: 6 (protein)
chain: B1 chain with S270N
modifications: mutant HPPD polypeptide
B11: 10 (protein)
chain: B1 chain with A268G, S270T, I345V
modifications: mutant HPPD polypeptide
B12: 68 (protein)
chain: B1 chain with T315Q, D336H, S344Q, I345M
modifications: mutant HPPD polypeptide
B13: 66 (protein)
chain: B1 chain with R213K, D336H, S344Q, I345M
modifications: mutant HPPD polypeptide
B14: 61 (protein)
chain: B1 chain with D336H
modifications: mutant HPPD polypeptide
B15: 62 (protein)
chain: B1 chain with D336H, I345M
modifications: mutant HPPD polypeptide
B16: 63 (protein)
chain: B1 chain with R213K, P215A, D336H, S344Q
modifications: mutant HPPD polypeptide
B17: 4 (protein)
chain: B1 chain with A268G, S270T
modifications: mutant HPPD polypeptide
B18: 11 (protein)
chain: B1 chain with A268P, S270T, I345V
modifications: mutant HPPD polypeptide
B19: 60 (protein)
chain: B1 chain with M172I, V173D, I345K
modifications: mutant HPPD polypeptide
B20: 70 (protein)
chain: B1 chain with R213K, T315Q, D336H, S344Q, I345M
modifications: mutant HPPD polypeptide
B21: 8 (protein)
chain: B1 chain with A268P, S270N
modifications: mutant HPPD polypeptide
B22: 59 (protein)
chain: B1 chain with S344Q, I345K
modifications: mutant HPPD polypeptide
B23: 2 (protein)
chain: B1 chain with A268P, S270T, D336W, S337N, K339A, V340Q
modifications: mutant HPPD polypeptide
B24: 71 (protein)
chain: B1 chain with P215L, A268P, S270T, D336F, S337N, V340E
modifications: mutant HPPD polypeptide

Substitutions are numbered along the chain they refer to.

For one data set, the system named is HPPD polypeptides. Briefly: coupled HPPD activity assay: turnover and residual turnover in crude extracts. As to conditions: 100 μM Cmpd. 1; signal change with inhibitor divided by signal change without inhibitor. It is filed as biochemical, Pseudomonas fluorescens. As for the experimental part: The activity of HPPD polypeptides was determined in absence or presence of HPPD inhibitors using the coupled HPPD activity assay (FIG. 1).
For the determination of the residual activity, the apparent kinetic constant (kapp) of the determined substrate conversion was measured as kinetic changes in absorbance (OD) at 320 nm in a coupled assay, in that homogentisate (HGA) formed by HPPD from HPP is directly converted into the well absorbing molecule maleylacetoacetate (MAA) by a second enzyme homogentisate dioxygenase (HGD), applied in excess uniformly in all assays (see FIG. 1). The measurements were performed in 384 micro titer plates (Greiner Bio-One GmbH, Frickenhausen, Germany) by plate readers (Tecan infinite M1000 or M1000PRO, Tecan, Männedorf, Switzerland). The kcat/kM ratio of an enzymatic activity is proportional to the apparent kinetic constant kapp and is proportional to kcat/kM*[E] ([E]=enzyme concentration). […] As both kapp measurements in the presence and absence of inhibitor were performed by use of the identical enzyme sample, crude or purified, and thereby at the same enzyme concentration, the enzyme concentration eliminates from the calculation of residual activity and the ratio of both kapp directly indicates the change of kM due to the inhibition.
The assay solution used for determination of residual activities in raw HPPD polypeptide samples was composed by 200 mM sodium phosphate (Merck, Darmstadt, Germany, pH 7.0), 5 mM MgCl2 (Merck, Darmstadt, Germany), 20 mM ascorbate (Sigma-Aldrich, St. Louis, USA), 1 mM DTT (Sigma-Aldrich, St. Louis, USA), 0.1% Pluronic F-68 (Sigma-Aldrich, St. Louis, USA), 40 μM FeSO4 (Sigma-Aldrich, St. Louis, USA), about 8 mg/ml purified HGD and 500 μM HPP from a 1 M stock solution in DMSO (Sigma-Aldrich, St. Louis, USA) and equilibrated for 20 min on ice. For every HPPD polypeptide sample two assays were performed in quadruplets, whereby 5 μl of HPPD polypeptide sample were mixed firstly with 5 μl buffer (1×BugBuster®; (Merck, Darmstadt, Germany); in 140 mM Tris, pH 7.8, with 1:25000 diluted BNase®; Qiagen, Hilden, Germany)) or 5 μl inhibitor diluted in the same buffer from a 0.1 M stock solution in DMSO (200 μM resulting in 100 μM in the HPPD polypeptide/inhibitor sample) in the reference and inhibition assay, respectively, and subsequently with 10 μl assay solution. The change in absorbance at 320 nm was followed in 1 min intervals for 30 min. The kapp values were calculated as signal slope over time in the early phase of the kinetic reaction, usually for the first 5-10 minutes of the measurements. Additionally and according to the calculated residual activity, the total conversion, i.e. the absolute change in signal, in the 30 min timeframe was monitored as measure of turnover, and a residual turnover was calculated by dividing the change in signal in the presence of inhibitor by the change in signal in the reference sample without inhibitor.
Residual turnover were determined according to Example 3 by measuring total change in signal in the presence and absence of Cmpd. 1 (2-chloro-3-(methylsulfanyl)-N-(1-methyl-1H-tetrazol-5-yl)-4-(trifluoromethyl)benzamide). For each mutant HPPD polypeptide, the total change in signal without HPPD inhibitor herbicides served for normalization of the total change in signal in the presence of the herbicide.
In the case of B1, the “Residual turnover [%]” value is listed as 45%.
In the case of B2, the “Residual turnover [%]” value was found to be 64%.
On to B3, for which the “Residual turnover [%]” value is listed as 64%.
As to B4, the “Residual turnover [%]” value is 47%.
In the case of B5, the “Residual turnover [%]” value is recorded as 52%.
The same measure, in the same setting: the figure for B6 is 54%; for B7 it is 42%; for B8 it is 66%.
As for B9, the “Residual turnover [%]” value worked out at 38%.
Still for that read-out and setting: to B10 belongs 50%.
Consider B11, for which the “Residual turnover [%]” value is 56%.
Regarding B12, the “Residual turnover [%]” value worked out at 64%.
Still for that read-out and setting: the figure for B13 is 56%; for B14 it is 40%; for B15 it is 37%.
In the case of B16, the “Residual turnover [%]” value is 68%.
Take B17: the “Residual turnover [%]” value amounted to 44%.
On to B18, for which the “Residual turnover [%]” value stood at 44%.
For the molecule B19, the “Residual turnover [%]” value came out at 45%.
For B20, the “Residual turnover [%]” value was 71%.
In the case of B21, the “Residual turnover [%]” value turned out to be 50%.
With B22, the “Residual turnover [%]” value was determined as 56%.

The same data set, now with this note: absence of Cmpd. 1; high substrate concentration; kinetic changes in absorbance (OD) at 320 nm, 30 min.
Regarding B1, the Turnover is recorded as 0.144.
Same read-out and setting: to B2 belongs 0.096; to B3, 0.335; to B4, 0.242.
Same read-out and setting: the figure for B5 is 0.102; for B6 it is 0.327; for B7 it is 0.149.
Still for that read-out and setting: to B8 belongs 0.36; to B9, 0.157; to B10, 0.165.
Regarding B11, the Turnover came out at 0.125.
Take B12: the Turnover worked out at 0.346.
As to B13, the Turnover amounted to 0.336.
Take B14: the Turnover is reported as 0.229.
Consider B15, for which the Turnover amounted to 0.308.
The molecule B16 registered a Turnover of 0.23.
On the same count and under the same terms, the figure for B17 is 0.126.
The molecule B18 had a Turnover of 0.160.
On the same count and under the same terms, the figure for B19 is 0.103; for B20 it is 0.338; for B21 it is 0.107.
B23: the Turnover came to 0.060.
On to B22, for which the Turnover was determined as 0.131.
Molecule B24 returned a Turnover of 0.044.

Still in this data set, the particulars now being: presence of 100 μM Cmpd. 1; high substrate concentration; changes in absorbance (OD) at 320 nm.
B1: the Residual turnover turned out to be 0.065.
As to B2, the Residual turnover turned out to be 0.061.
With B3, the Residual turnover worked out at 0.215.
The same measure, in the same setting: the figure for B4 is 0.114; for B5 it is 0.053.
On to B6, for which the Residual turnover came out at 0.177.
Turning to B7, the Residual turnover is 0.063.
As for B8, the Residual turnover is 0.237.
Consider B9, for which the Residual turnover is reported as 0.059.
With B10, the Residual turnover came to 0.082.
As to B11, the Residual turnover is listed as 0.070.
With B12, the Residual turnover is on record as 0.223.
For B13, the Residual turnover is recorded as 0.187.
On to B14, for which the Residual turnover is given as 0.091.
For B15, the Residual turnover was determined as 0.115.
Turning to B16, the Residual turnover worked out at 0.156.
Take B17: the Residual turnover was found to be 0.055.
In the case of B18, the Residual turnover is on record as 0.071.
Turning to B19, the Residual turnover is recorded as 0.046.
For the molecule B20, the Residual turnover is 0.240.
In the case of B21, the Residual turnover came out at 0.054.
With B23, the Residual turnover was 0.026.
In the case of B22, the Residual turnover is listed as 0.074.
Still for that read-out and setting: the figure for B24 is 0.022.
